Measurements: paper PMC4778132, “CC chemokine receptor 10 cell surface presentation in melanocytes is regulated by the novel interaction partner S100A10” (Scientific Reports, 2016)

Tests used:
[1] = molecular target: T1, recombinant HIS-tagged human S100A10 (wild type) (human, UniProt P60903 1-97); test: SPR; Biacore 3000; GST-CCR10 CT amine-coupled on a CM5 chip; six concentrations of HIS-tagged S100A10 derivative injected; HBS-P buffer (10 mM Hepes pH 7.4, 150 mM NaCl, 0.005% Tween-20), 25 °C; binding to GST alone subtracted; single binding site model, KD by the Scatchard equation; settings: both partners purified
T1 construct: human S100A10, cDNA in pET28a(+); also called HIS-S100A10; S100A10 wt; source: E. coli BL21(DE3)pLysS, purified (Ni-NTA); not shown: poly-histidine (HIS), N-terminal, kept

[2] = molecular target: T1, recombinant HIS-tagged human S100A10 …; test: pull-down; GST fusion proteins (50 μg) on glutathione sepharose beads incubated with purified protein (10 μg), 2 hours at 4 °C, IP buffer (20 mM Tris-HCl pH 7.5, 25 mM NaCl, 10 mM NaF, 1 mM EDTA, 0.1% Triton-X 100); immunoblot; settings: both partners purified

T1 sequence (P60903 whole entry): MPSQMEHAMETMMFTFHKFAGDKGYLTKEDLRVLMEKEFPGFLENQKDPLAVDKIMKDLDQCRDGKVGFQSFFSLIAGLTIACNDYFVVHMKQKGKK

Kd [1] [µM] | binding result [2] | Binder
~1 | – | GLRFRQDLRRLLRGGSCPSGPQPRRGCPRRPRLSSCSAPTETHSLSWDN (domain or fragment, UniProt P46092 314-362, looked up, C-terminal cytosolic tail of human CCR10, amino acid residues 314-362 (methods); the results print 314-369; Cloned in pGex-4T-1; Results print 314-369, methods 314-362; also called CCR10 CT_(314–369); pGex-CCR10CT_(314–362)) [GST-CCR10 CT (C-terminal cytoplasmic tail of human CCR10 fused to GST)]
– | binds | GLRFRQDLRRLLRGGSCPSGPQPRRG (domain or fragment, human, UniProt P46092 314-339, looked up, C-terminal tail of human CCR10, amino acid residues 314-339 (stop codon inserted into pGex-CCR10CT); also called T1 mutant) [GST-CCR10 CT truncation mutant T1]
